This is an account of results in patent US20030220482A1, “Novel peptide antagonist of CXCR4 derived from the N-terminus of the viral chemokine vMIP-II” (priority 2000, published 2003).

A word on the IC50: it is the midpoint of a concentration-inhibition curve. The low end stands for greater potency, the high end for weaker potency.

The target of test [1] is T1, CXCR4 chemokine receptor (human), P61073.
T1 chain: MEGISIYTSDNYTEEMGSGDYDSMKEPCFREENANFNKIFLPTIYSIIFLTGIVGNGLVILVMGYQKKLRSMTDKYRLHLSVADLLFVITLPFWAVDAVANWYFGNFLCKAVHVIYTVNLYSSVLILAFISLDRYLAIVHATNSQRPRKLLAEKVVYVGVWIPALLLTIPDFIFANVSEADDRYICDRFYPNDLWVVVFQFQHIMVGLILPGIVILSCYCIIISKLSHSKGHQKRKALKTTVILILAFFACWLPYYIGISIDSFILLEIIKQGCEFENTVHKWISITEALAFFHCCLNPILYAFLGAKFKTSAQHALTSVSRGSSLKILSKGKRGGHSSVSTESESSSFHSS
Put plainly: anti-CXCR4 mAb 12G5 competitive binding assay, IC50 against SDF-1.

The target is the same in test [2]. Put plainly: ^125I-SDF-1α competitive binding assay, IC50 against SDF-1.
The target is the same in test [3].
Test [4] shares this target. Put plainly: cell-based or functional assay.
The target is the same in test [5]. Put plainly: anti-CXCR4 mAb 12G5 competitive binding assay.

Like-named read-outs stand apart in the source and are kept apart here.

As to LGASWHRPDKCCLGYQKRPLP (modifications not checked) [V1 peptide (vMIP-II, 1-21)], the fold less potent than SDF-1 was found to be 33 fold in test [1] and 70 fold in test [2]. Besides, the IC50 in test [3] is 190 nM; in test [5], 640 nM. In addition, the chemotaxis assay, IC50 in test [4] worked out at 1 µM. Moreover, the intracellular calcium influx in Sup T1 cells: block of the SDF-1 signal in test [4] came to 200 µM.
